Laboratory results as given in article PMC11487556.

Experiments:
[1] = molecular target: truncated β1 adrenergic receptor (M. gallopavo β114-E130W, without an intact ICL3) (M. gallopavo) (UniProt P07700)
[2] = molecular target: β1 adrenergic receptor with an intact ICL3 (M. gallopavo β114E130WIC3) (M. gallopavo) (UniProt P07700)

- GDP release (decay of BODIPY FL GDP fluorescence) after addition of isoprenaline, 20 °C [1]: 60 s
- GDP release (decay of BODIPY FL GDP fluorescence) after addition of isoprenaline, 20 °C [2]: 60 s
Substance: mini Gs (engineered GTPase domain of the Gαs protein), construct R414, I208A (domain or fragment)
